According to patent US20240034800A1 (MEDYTOX, published 2024):
Values joined by “and” are separate entries in the source; they are usually repeats but may differ in a detail not shown here. Equal values may be shown once.

How the values were obtained:
Mouse HVEM-Fc [1] = target: T1, Mouse HVEM-Fc (mouse, UniProt Q80WM9); test: ELISA, coated mouse HVEM-mFc, anti-human IgG4-HRP
T1 construct: part fused to Fc; also called mouse HVEM-mFc; mHVEM
T1 sequence (fusion chain, looked up): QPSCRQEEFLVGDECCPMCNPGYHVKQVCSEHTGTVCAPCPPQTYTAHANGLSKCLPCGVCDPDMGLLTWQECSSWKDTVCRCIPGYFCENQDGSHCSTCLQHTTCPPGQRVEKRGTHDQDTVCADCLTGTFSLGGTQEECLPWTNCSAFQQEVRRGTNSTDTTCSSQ
Experimental: (§1) The binding ability of the full-size human antibody to HVEM was analyzed using an ELISA testing method. 0.2 μg/ml of each of human HVEM-hFc, cynomolgus monkey HVEM-hFc, and mouse HVEM-mFc proteins was coated on a 96-half-well plate for immunosorbent assay. To inhibit non-specific binding, reaction was carried out in phosphate buffered saline (PBS) containing 3% bovine serum albumin (BSA) for 1 hour, followed by treatment with serially diluted antibodies for 1 hour. To measure the amounts of the bound antibodies, horse radish peroxidase (HRP)-conjugated anti-human IgG4 antibody was used, and for the activity of HRP, a color reaction was induced using a 3,3′,5,5′-tetramethylbenzidine (TMB) substrate solution, and the reaction was terminated with 1N sulfuric acid. […] In the middle of each step, washing was performed three times using PBS (PBST) containing 0.1% Triton X-100. The binding ability of the antibodies was derived using SigmaPlot.

human HVEM-Fc protein [2] = target: T2, human HVEM-Fc protein (human, UniProt Q92956 39-202, limits assumed); test: Octet BLI (column kdis)
T2 construct: not shown: Fc
T2 sequence (looked up): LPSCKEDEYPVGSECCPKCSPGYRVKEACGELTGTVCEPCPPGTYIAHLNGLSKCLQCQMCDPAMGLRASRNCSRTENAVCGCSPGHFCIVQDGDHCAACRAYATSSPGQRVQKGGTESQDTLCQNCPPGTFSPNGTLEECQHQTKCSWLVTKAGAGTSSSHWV

human HVEM-Fc protein [3] = target: T2, human HVEM-Fc protein; test: ELISA, coated human HVEM-hFc, anti-human IgG4-HRP
Experimental: as §1

Mouse HVEM-Fc [4] = target: T1, Mouse HVEM-Fc; test: ELISA, coated mouse HVEM-mFc 0.2 ug/ml, anti-human IgG4-HRP, SigmaPlot fit
Experimental: as §1

human HVEM-Fc protein [5] = target: T2, human HVEM-Fc protein; test: ELISA, coated human HVEM-hFc 0.2 ug/ml, anti-human IgG4-HRP, SigmaPlot fit
Experimental: as §1

Monkey HVEM-Fc = target: T3, Monkey HVEM-Fc (Macaca fascicularis, UniProt A0A2K5W0R1); test: ELISA, coated cynomolgus monkey HVEM-hFc, anti-human IgG4-HRP
T3 construct: part fused to Fc; also called cynomolgus monkey HVEM-hFc
T3 sequence (fusion chain): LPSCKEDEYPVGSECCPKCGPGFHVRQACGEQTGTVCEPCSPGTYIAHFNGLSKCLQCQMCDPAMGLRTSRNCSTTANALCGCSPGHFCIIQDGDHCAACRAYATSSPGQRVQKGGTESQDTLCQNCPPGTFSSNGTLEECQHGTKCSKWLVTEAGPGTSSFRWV
Experimental: as §1

human HVEM-Fc protein [6] = target: T2, human HVEM-Fc protein; test: Octet BLI
human HVEM-Fc protein [7] = target: T2, human HVEM-Fc protein; test: flow cytometry competition: human HVEM-Fc 1 ug/ml on BTLA-expressing Jurkat cells, antibody 10 or 100 nM; blocked ligand BTLA
Experimental: For flow cytometry, the stained cell lines were fixed on ice for 20 minutes using PBS containing 2% formaldehyde and stored in a refrigerator until flow cytometry.

B1: HVEM001 (antibody, human IgG4 S228P, kappa, V domains shown)
VH: EVQLLESGGGLVQPGGSLRLSCAASGFTFSNYAMHWVRQAPGKGLEWVSNINPSGGSTTYAQEFEDRFTISRDNSKNTLYLQMNSLRAEDTAVYYCATRSRQDSWGYFDIWGQGTLVTVSS
VL: EIVLTQSPGTLSLSPGERATLSCRASRSISNYLAWYQQKPGQAPRLLIYGASTRATGIPDRFSGSGSGTDFTLTISRLEPEDFAVYYCQQYGSSPPLTFGQGTKVEIKR
binding affinity (ELISA fit; table in pM) (Mouse HVEM-Fc [1]): 228 pM | koff (human HVEM-Fc protein [2]): 7.55e-06 s⁻¹ | binding affinity (ELISA fit; table in pM) (human HVEM-Fc protein [3]): 32.8 pM | binding affinity (ELISA fit) (Mouse HVEM-Fc [4]): 151 pM | binding affinity (ELISA fit) (human HVEM-Fc protein [5]): 22 pM | binding affinity (ELISA fit; table in pM) (Monkey HVEM-Fc): 341 pM | Kd (human HVEM-Fc protein [6]): 26.3 pM | kon (human HVEM-Fc protein [6]): 287000 M⁻¹ s⁻¹

B2: HVEM041 (antibody, human IgG4 S228P, kappa, V domains shown)
VH: EVQLLESGGGLVQPGGSLRLSCAASGFTFSSYAMSWVRQAPGKGLEWVSEISQSGSSNYNPSLKSRFTISRDNSKNTLYLQMNSLRAEDTAVYYCATGRWRFDYWGQGTLVTVSS
VL: EIVLTQSPGTLSLSPGERATLSCRASRSVGKYLAWYQQKPGQAPRLLIYGASTRATGIPDRFSGSGSGTDFTLTISRLEPEDFAVYYCQQYGSSPPVTFGQGTKVEIKR
binding affinity (ELISA fit) (Mouse HVEM-Fc [4]): 141 pM | binding affinity (ELISA fit) (human HVEM-Fc protein [5]): 20.1 pM

B3: HVEM032 (antibody, human IgG4 S228P, kappa, V domains shown)
VH: EVQLLESGGGLVQPGGSLRLSCAASGFTFSNYAIHWVRQAPGKGLEWVSTISSPGSTINYADSVKGRFTISRDNSKNTLYLQMNSLRAEDTAVYYCASGYLYPAMDVWGQGTLVTVSS
VL: EIVLTQSPGTLSLSPGERATLSCRASRSVGKYLSWYQQKPGQAPRLLIYGASKLQSGIPDRFSGSGSGTDFTLTISRLEPEDFAVYYCQQYGSWPPFTFGQGTKVEIKR
binding affinity (ELISA fit) (Mouse HVEM-Fc [4]): 114 pM | binding affinity (ELISA fit) (human HVEM-Fc protein [5]): 16.9 pM

B4: HVEM040 (antibody, human IgG4 S228P, kappa, V domains shown)
VH: EVQLLESGGGLVQPGGSLRLSCAASGFTFSNYGMSWVRQAPGKGLEWVSSIYYSGDTYYNPSLESRFTISRDNSKNTLYLQMNSLRAEDTAVYYCASGSNAFDIWGQGTLVTVSS
VL: EIVLTQSPGTLSLSPGERATLSCRASRSVGKYLAWYQQKPGQAPRLLIYGASSRTTGIPDRFSGSGSGTDFTLTISRLEPEDFAVYYCQQYGSSPPVTFGQGTKVEIKR
binding affinity (ELISA fit) (Mouse HVEM-Fc [4]): 126 pM | binding affinity (ELISA fit) (human HVEM-Fc protein [5]): 20 pM

B5: HVEM017 (antibody, human IgG4 S228P, kappa, V domains shown)
VH: EVQLLESGGGLVQPGGSLRLSCAASGFTFSTNYMSWVRQAPGKGLEWVSLISYSGSNKYYADSVKGRFTISHDNSKNTLYLQMNSLRAEDTAVYYCARGRGNTISGTFDLWGQGTLVTVSS
VL: EIVLTQSPGTLSLSPGERATLSCRASRSVGKYLAWYQQKPGQAPRLLIYSASTLSSGIPDRFSGSGSGTDFTLTISRLEPEDFAVYYCQQYGSSPPITFGQGTKVEIKR
notes: also called HVEM0017
binding affinity (ELISA fit) (Mouse HVEM-Fc [4]): 112 pM | binding affinity (ELISA fit) (human HVEM-Fc protein [5]): 21.5 pM

B6: HVEM021 (antibody, human IgG4 S228P, kappa, V domains shown)
VH: EVQLLESGGGLVQPGGSLRLSCAASGFTFSTFAMHWVRQAPGKGLEWVSSIYPSGNTHYKPSLKSRFTISRDNSKNTLYLQMNSLRAEDTAVYYCARRHPGGGWIFDYWGQGTLVTVSS
VL: EIVLTQSPGTLSLSPGERATLSCRASRSVGKYLAWYQQKPGQAPRLLIYGASTRATGIPDRFSGSGSGTDFTLTISRLEPEDFAVYYCQQYGSSPPVTFGQGTKVEIKR
notes: Full-size human IgG4 (S228P) kappa antibody made in ExpiCHO-S; human IL-2 signal peptide is cleaved and left out; also called HVEM021 antibody
binding affinity (ELISA fit; table in pM) (Mouse HVEM-Fc [1]): 55.6 pM | koff (human HVEM-Fc protein [2]): 1.62e-06 s⁻¹ | binding affinity (ELISA fit; table in pM) (human HVEM-Fc protein [3]): 32.5 pM | binding affinity (ELISA fit; table in pM) (Monkey HVEM-Fc): 61.8 pM | Kd (human HVEM-Fc protein [6]): 34.4 pM | kon (human HVEM-Fc protein [6]): 471000 M⁻¹ s⁻¹

B7: HVEM039 (antibody, human IgG4 S228P, kappa, V domains shown)
VH: EVQLLESGGGLVQPGGSLRLSCAASGFTFSSYGMNWVRQAPGKGLEWVSIINPSGDTTTYAQKFQGRFTISRDNSKNTLYLQMNSLRAEDTAVYYCARGRGAFDYWGQGTLVTVSS
VL: EIVLTQSPGTLSLSPGERATLSCRASRSVGKYLAWYQQKPGQAPRLLIYGATSRATGIPDRFSGSGSGTDFTLTISRLEPEDFAVYYCQQYGSSPPVTFGQGTKVEIKR
binding affinity (ELISA fit) (Mouse HVEM-Fc [4]): 334 pM | binding affinity (ELISA fit) (human HVEM-Fc protein [5]): 19.5 pM

B8: HVEM011 (antibody, human IgG4 S228P, kappa, V domains shown)
VH: EVQLLESGGGLVQPGGSLRLSCAASEFTFSSYAMHWVRQAPGKGLEWVSSITSASSYIDYADSVKGRFTISRDNSKNTLYLQMNSLRAEDTAVYYCARGTRGLFDHWGQGTLVTVSS
VL: EIVLTQSPGTLSLSPGERATLSCRASRSVGKYLAWYQQKPGQAPRLLIYLGSNRASGIPDRFSGSGSGTDFTLTISRLEPEDFAVYYCQQYGSSPPITFGQGTKVEIKR
notes: Full-size human IgG4 (S228P) kappa antibody made in ExpiCHO-S; human IL-2 signal peptide is cleaved and left out; also called HVEM011 antibody
binding affinity (ELISA fit; table in pM) (Mouse HVEM-Fc [1]): 203 pM | koff (human HVEM-Fc protein [2]): 9.53e-06 s⁻¹ and 8.75e-06 s⁻¹ | binding affinity (ELISA fit; table in pM) (human HVEM-Fc protein [3]): 25.9 pM | binding affinity (ELISA fit) (Mouse HVEM-Fc [4]): 219 pM | binding affinity (ELISA fit) (human HVEM-Fc protein [5]): 23.4 pM | binding affinity (ELISA fit; table in pM) (Monkey HVEM-Fc): 65.9 pM | Kd (human HVEM-Fc protein [6]): 22.5 pM and 14.6 pM | kon (human HVEM-Fc protein [6]): 425000 M⁻¹ s⁻¹ and 598000 M⁻¹ s⁻¹

B9: HVEM030 (antibody, human IgG4 S228P, kappa, V domains shown)
VH: EVQLLESGGGLVQPGGSLRLSCAASGFTFSGYYWTWVRQAPGKGLEWVSTISASGDSTYYADSVKGRFTISRDNSKNTLYLQMNSLRAEDTAVYYCAHDRTFGYFDYWGQGTLVTVSS
VL: EIVLTQSPGTLSLSPGERATLSCRASRSVGKYLAWYQQKPGQAPRLLIYAASSLQSGIPDRFSGSGSGTDFTLTISRLEPEDFAVYYCQQYGSSPPITFGQGTKVEIKR
binding affinity (ELISA fit) (Mouse HVEM-Fc [4]): 16.6 pM | binding affinity (ELISA fit) (human HVEM-Fc protein [5]): 16.1 pM

B10: HVEM004 (antibody, human IgG4 S228P, kappa, V domains shown)
VH: EVQLLESGGGLVQPGGSLRLSCAASGFTFSSYAMSWVRQAPGKGLEWVSSISGSGGKTYYADSVRGRFTISRDNSKNTLYLQMNSLRAEDTAVYYCAKGVGYTTSGRFDYWGQGTLVTVSS
VL: EIVLTQSPGTLSLSPGERATLSCRASRSISSYLAWYQQKPGQAPRLLIYGVSTRATGIPDRFSGSGSGTDFTLTISRLEPEDFAVYYCQQYGSWPPFTFGQGTKVEIKR
binding result (human HVEM-Fc protein [7]): binds

B11: HVEM018 (antibody, human IgG4 S228P, kappa, V domains shown)
VH: EVQLLESGGGLVQPGGSLRLSCAASGFTFSSYSMNWVRQAPGKGLEWVSAISGSGGGTYSADSVKGRFTISRDNSKNTLYLQMNSLRAEDTAVYYCARGKAYGYFDYWGQGTLVTVSS
VL: EIVLTQSPGTLSLSPGERATLSCRASRSVGKYLAWYQQKPGQAPRLLIYAASTLQSGIPDRFSGSGSGTDFTLTISRLEPEDFAVYYCQQYGSSPPVIFGQGTKVEIKR
binding affinity (ELISA fit) (Mouse HVEM-Fc [4]): 158 pM | binding affinity (ELISA fit) (human HVEM-Fc protein [5]): 25.9 pM
